Data on one protein can be found in US20220315967A1, “METHODS FOR PRODUCING D-TRYPTOPHAN AND SUBSTITUTED D-TRYPTOPHANS” (priority 2019, published 2022).

This series deals with T1, IvoA(C^0) mutant (H1428A).
T1 chain: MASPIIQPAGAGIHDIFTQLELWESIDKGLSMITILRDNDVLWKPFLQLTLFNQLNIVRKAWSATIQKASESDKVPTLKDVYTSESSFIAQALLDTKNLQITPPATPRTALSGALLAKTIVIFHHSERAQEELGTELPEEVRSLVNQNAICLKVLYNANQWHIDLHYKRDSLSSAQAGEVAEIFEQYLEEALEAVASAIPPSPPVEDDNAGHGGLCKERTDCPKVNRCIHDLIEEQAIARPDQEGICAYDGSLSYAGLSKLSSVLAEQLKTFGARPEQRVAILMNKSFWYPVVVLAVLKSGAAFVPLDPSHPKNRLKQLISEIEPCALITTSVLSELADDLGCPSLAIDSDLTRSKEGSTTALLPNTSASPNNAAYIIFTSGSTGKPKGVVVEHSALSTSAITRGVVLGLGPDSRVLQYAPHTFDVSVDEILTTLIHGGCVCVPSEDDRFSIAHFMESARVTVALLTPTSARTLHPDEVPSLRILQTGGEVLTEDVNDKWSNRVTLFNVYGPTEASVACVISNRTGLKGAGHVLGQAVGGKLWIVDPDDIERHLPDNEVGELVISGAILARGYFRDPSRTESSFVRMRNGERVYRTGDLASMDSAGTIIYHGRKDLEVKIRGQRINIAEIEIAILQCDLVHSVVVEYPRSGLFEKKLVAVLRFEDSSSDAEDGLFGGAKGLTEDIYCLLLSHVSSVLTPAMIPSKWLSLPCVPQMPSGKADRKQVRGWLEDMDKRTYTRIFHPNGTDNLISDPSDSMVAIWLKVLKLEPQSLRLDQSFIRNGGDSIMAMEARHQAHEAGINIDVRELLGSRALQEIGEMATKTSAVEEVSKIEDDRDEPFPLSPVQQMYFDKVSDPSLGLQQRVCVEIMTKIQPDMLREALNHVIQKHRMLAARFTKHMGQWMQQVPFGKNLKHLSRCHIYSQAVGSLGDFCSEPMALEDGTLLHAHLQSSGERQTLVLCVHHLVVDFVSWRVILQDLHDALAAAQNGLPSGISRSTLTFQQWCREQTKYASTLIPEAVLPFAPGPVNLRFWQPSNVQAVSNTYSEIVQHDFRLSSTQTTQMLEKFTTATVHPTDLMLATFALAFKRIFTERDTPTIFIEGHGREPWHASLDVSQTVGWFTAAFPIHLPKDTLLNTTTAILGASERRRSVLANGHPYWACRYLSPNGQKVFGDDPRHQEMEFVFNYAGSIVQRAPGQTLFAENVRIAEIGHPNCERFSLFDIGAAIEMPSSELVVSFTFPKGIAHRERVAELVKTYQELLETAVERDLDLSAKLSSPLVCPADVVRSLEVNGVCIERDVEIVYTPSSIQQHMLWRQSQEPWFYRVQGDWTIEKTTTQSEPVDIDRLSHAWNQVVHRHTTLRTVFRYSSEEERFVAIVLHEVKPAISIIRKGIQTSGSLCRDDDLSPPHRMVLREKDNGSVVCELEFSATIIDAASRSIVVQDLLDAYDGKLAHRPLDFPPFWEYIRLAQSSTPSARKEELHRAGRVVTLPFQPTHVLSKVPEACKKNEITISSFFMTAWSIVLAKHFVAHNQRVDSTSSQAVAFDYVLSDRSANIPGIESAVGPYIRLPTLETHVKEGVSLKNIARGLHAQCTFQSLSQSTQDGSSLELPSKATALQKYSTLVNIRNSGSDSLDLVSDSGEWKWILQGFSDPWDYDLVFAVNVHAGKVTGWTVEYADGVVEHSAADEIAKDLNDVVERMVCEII

B1: standalone IvoA-C (condensation (C) domain of Aspergillus nidulans single-module NRPS IvoA) (protein)
chain: DLDLSAKLSSPLVCPADVVRSLEVNGVCIERDVEIVYTPSSIQQHMLWRQSQEPWFYRVQGDWTIEKTTTQSEPVDIDRLSHAWNQVVHRHTTLRTVFRYSSEEERFVAIVLHEVKPAISIIRKGIQTSGSLCRDDDLSPPHRMVLREKDNGSVVCELEFSHTIIDAASRSIVVQDLLDAYDGKLAHRPLDFPPFWEYIRLAQSSTPSARKEELHRAGRVVTLPFQPTHVLSKVPEACKKNEITISSFFMTAWSIVLAKHFVAHNQRVDSTSSQAVAFDYVLSDRSANIPGIESAVGPYIRLPTLETHVKEGVSLKNIARGLHAQCTFQSLSQSTQDGSSLELPSKATALQKYSTLVNIRNSGSDSLDLVSDSGEWKWILQGFSDPWDYDLVFAVNVHAGKVTGWTVEYADGVVEHSAADEIAKDLNDVVERMVCEII
Take B1: the “stereoinversion activity (complementation in trans)” value is reported as “Addition of IvoA-C in equimolar to either IvoA(C^0) mutant or IvoA-ΔC truncation mutant successfully rescued the impaired stereoinversion activity”.
